Test results as given in patent publication US20030165997, “Zinc finger domain libraries” (published 2003).

Experiments:
Assay in all cases: cell_activity; HEK 293 luciferase
Details in all cases: tags: HA, NLS
ZFP 36 RSNR-VSSR-RSNR = ZFP 36 RSNR-VSSR-RSNR (Homo sapiens)
Procedure: (§1) The in vivo activity assay for a particular three-finger protein was carried out as follows. HEK 293 cells were transfected with four plasmids: 14 ng of a plasmid expressing the particular three-finger protein; 14 ng of the reporter plasmid described above; 70 ng of a plasmid that expresses GAL4-VP 16; and 1.4 ng of a plasmid that expresses Renillar luciferase. The GAL4-VP 16 activates transcription of the minimal synthetic promoter in the reporter so that the repression effected by a particular three-finger protein could be clearly detected and compared to other three-finger proteins. The plasmid expressing Renillar luciferase provides a control of transfection efficiency.
(§2) Lipofectamine (Gibco-BRL) was used for the transfection procedures. Cells were transfected at 30-50% confluency in wells of a 96 well plate. The cells were incubated for two days prior to harvesting for the luciferase assay. Then luciferase activities were measured using the Dual-Luciferase™ Reporter Assay System (Promega). The observed firefly luciferase activity was normalized using the observed level of Renilla luciferase. The extent of repression or “fold-repression” was calculated by dividing a value for normalized reporter expression in the absence of a zinc finger protein by a value for normalized reporter expression in the presence of the zinc finger protein.
(§3) A total of 153 three-finger chimeric proteins were constructed from both the “zinc finger protein-first” and the “target site-first” approaches. These proteins were tested using the transient cotransfection assay described in Example 68.

ZFP 41 QSNR3-RSNR-RSHR = ZFP 41 QSNR3-RSNR-RSHR (Homo sapiens)
Sequence of ZFP 41 QSNR3-RSNR-RSHR (Homo sapiens) (chain, as listed by the source): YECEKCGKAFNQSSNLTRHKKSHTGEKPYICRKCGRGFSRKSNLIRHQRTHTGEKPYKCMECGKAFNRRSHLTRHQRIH
Procedure: as §1, §2, §3

ZFP 45 HSNK-QSNV2-VSSR = ZFP 45 HSNK-QSNV2-VSSR (Homo sapiens)
Sequence of ZFP 45 HSNK-QSNV2-VSSR (Homo sapiens) (chain, as listed by the source): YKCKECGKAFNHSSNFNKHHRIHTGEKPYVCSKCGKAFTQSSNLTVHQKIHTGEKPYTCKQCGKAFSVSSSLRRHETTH
Procedure: as §1, §2, §3

ZFP 46 HSNK-QSHT-RSNR = ZFP 46 HSNK-QSHT-RSNR (Homo sapiens)
Sequence of ZFP 46 HSNK-QSHT-RSNR (Homo sapiens) (chain, as listed by the source): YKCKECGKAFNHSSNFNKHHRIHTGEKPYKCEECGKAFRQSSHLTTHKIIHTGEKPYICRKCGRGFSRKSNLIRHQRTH
Procedure: as §1, §2, §3

ZFP 65 RSNR-RDER1-RSHR = ZFP 65 RSNR-RDER1-RSHR (Homo sapiens)
Sequence of ZFP 65 RSNR-RDER1-RSHR (Homo sapiens) (chain, as listed by the source): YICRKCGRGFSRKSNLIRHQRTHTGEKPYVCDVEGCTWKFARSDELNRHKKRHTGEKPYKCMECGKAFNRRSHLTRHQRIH
Procedure: as §1, §2, §3

ZFP 52 QSHR2-QSHT-RSNR = ZFP 52 QSHR2-QSHT-RSNR (Homo sapiens)
Sequence of ZFP 52 QSHR2-QSHT-RSNR (Homo sapiens) (chain, as listed by the source): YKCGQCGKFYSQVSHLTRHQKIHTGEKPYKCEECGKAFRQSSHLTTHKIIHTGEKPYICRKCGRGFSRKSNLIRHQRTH
Procedure: as §1, §2, §3

ZFP 51 VSNV-QSNV2-QSHT = ZFP 51 VSNV-QSNV2-QSHT (Homo sapiens)
Sequence of ZFP 51 VSNV-QSNV2-QSHT (Homo sapiens) (chain, as listed by the source): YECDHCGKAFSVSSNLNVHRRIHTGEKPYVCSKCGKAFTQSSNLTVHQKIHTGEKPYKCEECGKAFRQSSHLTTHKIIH
Procedure: as §1, §2, §3

ZFP 62 RDER1-QSSR1-VSTR = ZFP 62 RDER1-QSSR1-VSTR (Homo sapiens)
Sequence of ZFP 62 RDER1-QSSR1-VSTR (Homo sapiens) (chain, as listed by the source): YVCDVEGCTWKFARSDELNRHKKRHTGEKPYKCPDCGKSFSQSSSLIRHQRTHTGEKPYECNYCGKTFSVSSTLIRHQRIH
Procedure: as §1, §2, §3

ZFP 57 QSHR2-CSNR1-QSHT = ZFP 57 QSHR2-CSNR1-QSHT (Homo sapiens)
Sequence of ZFP 57 QSHR2-CSNR1-QSHT (Homo sapiens) (chain, as listed by the source): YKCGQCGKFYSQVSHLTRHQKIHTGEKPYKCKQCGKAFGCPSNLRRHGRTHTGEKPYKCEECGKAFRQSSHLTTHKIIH
Procedure: as §1, §2, §3

ZFP 47 RSHR-QSHR2-VSTR = ZFP 47 RSHR-QSHR2-VSTR (Homo sapiens)
Sequence of ZFP 47 RSHR-QSHR2-VSTR (Homo sapiens) (chain, as listed by the source): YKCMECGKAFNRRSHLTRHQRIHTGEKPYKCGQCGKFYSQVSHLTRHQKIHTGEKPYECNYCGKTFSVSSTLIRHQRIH
Procedure: as §1, §2, §3

ZFP 64 VSSR-RSHR-ISNR = ZFP 64 VSSR-RSHR-ISNR (Homo sapiens)
Sequence of ZFP 64 VSSR-RSHR-ISNR (Homo sapiens) (chain, as listed by the source): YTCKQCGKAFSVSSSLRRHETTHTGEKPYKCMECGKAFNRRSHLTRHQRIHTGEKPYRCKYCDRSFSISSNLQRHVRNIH
Procedure: as §1, §2, §3

ZFP 48 RDHT-RSHR-RDER1 = ZFP 48 RDHT-RSHR-RDER1 (Homo sapiens)
Sequence of ZFP 48 RDHT-RSHR-RDER1 (Homo sapiens) (chain, as listed by the source): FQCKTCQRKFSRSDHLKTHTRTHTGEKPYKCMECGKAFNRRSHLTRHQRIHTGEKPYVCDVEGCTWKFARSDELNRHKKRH
Procedure: as §1, §2, §3

ZFP 49 RSHR-QSNV2-QSHT = ZFP 49 RSHR-QSNV2-QSHT (Homo sapiens)
Sequence of ZFP 49 RSHR-QSNV2-QSHT (Homo sapiens) (chain, as listed by the source): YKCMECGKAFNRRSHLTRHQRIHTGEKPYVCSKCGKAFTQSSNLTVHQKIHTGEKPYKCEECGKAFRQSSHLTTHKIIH
Procedure: as §1, §2, §3

ZFP 50 RSHR-RDER1-QSNV2 = ZFP 50 RSHR-RDER1-QSNV2 (Homo sapiens)
Sequence of ZFP 50 RSHR-RDER1-QSNV2 (Homo sapiens) (chain, as listed by the source): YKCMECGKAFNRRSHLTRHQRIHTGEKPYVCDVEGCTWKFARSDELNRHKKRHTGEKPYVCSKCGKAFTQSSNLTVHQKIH
Procedure: as §1, §2, §3

ZFP 42 RDHT-QSHR2-QSHT = ZFP 42 RDHT-QSHR2-QSHT (Homo sapiens)
Sequence of ZFP 42 RDHT-QSHR2-QSHT (Homo sapiens) (chain, as listed by the source): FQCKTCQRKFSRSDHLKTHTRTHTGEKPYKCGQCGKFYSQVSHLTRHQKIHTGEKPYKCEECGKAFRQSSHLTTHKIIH
Procedure: as §1, §2, §3

ZFP 35 VSSR-QSHT-RSHR = ZFP 35 VSSR-QSHT-RSHR (Homo sapiens)
Sequence of ZFP 35 VSSR-QSHT-RSHR (Homo sapiens) (chain, as listed by the source): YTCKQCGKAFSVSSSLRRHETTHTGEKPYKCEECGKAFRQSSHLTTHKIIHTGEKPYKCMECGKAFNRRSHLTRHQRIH
Procedure: as §1, §2, §3

ZFP 56 RSNR-VSTR-RSHR = ZFP 56 RSNR-VSTR-RSHR (Homo sapiens)
Sequence of ZFP 56 RSNR-VSTR-RSHR (Homo sapiens) (chain, as listed by the source): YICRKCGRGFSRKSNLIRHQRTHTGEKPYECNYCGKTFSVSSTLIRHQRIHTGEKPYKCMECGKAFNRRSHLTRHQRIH
Procedure: as §1, §2, §3

ZFP 60 QSNR3-QSSR1-QSNV2 = ZFP 60 QSNR3-QSSR1-QSNV2 (Homo sapiens)
Sequence of ZFP 60 QSNR3-QSSR1-QSNV2 (Homo sapiens) (chain, as listed by the source): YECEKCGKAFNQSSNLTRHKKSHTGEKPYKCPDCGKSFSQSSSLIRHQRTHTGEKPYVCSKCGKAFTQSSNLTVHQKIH
Procedure: as §1, §2, §3

ZFP 58 VSNV-QSHR2-VSTR = ZFP 58 VSNV-QSHR2-VSTR (Homo sapiens)
Sequence of ZFP 58 VSNV-QSHR2-VSTR (Homo sapiens) (chain, as listed by the source): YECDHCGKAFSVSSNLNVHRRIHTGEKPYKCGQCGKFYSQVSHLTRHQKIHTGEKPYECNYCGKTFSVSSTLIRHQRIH
Procedure: as §1, §2, §3

ZFP 39 VSTR-RSNR-QSHR2 = ZFP 39 VSTR-RSNR-QSHR2 (Homo sapiens)
Sequence of ZFP 39 VSTR-RSNR-QSHR2 (Homo sapiens) (chain, as listed by the source): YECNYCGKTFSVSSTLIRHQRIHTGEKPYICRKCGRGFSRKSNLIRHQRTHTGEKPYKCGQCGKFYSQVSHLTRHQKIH
Procedure: as §1, §2, §3

ZFP 55 QSNV2-QSHR2-QSNR3 = ZFP 55 QSNV2-QSHR2-QSNR3 (Homo sapiens)
Sequence of ZFP 55 QSNV2-QSHR2-QSNR3 (Homo sapiens) (chain, as listed by the source): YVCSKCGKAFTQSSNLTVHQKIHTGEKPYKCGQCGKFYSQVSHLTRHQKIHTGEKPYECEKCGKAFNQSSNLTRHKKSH
Procedure: as §1, §2, §3

ZFP 43 QSSR1-QSNR3-QSHR2 = ZFP 43 QSSR1-QSNR3-QSHR2 (Homo sapiens)
Sequence of ZFP 43 QSSR1-QSNR3-QSHR2 (Homo sapiens) (chain, as listed by the source): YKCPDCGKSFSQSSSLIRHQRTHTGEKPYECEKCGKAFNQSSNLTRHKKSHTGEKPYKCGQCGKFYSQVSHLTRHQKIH
Procedure: as §1, §2, §3

ZFP 53 QSHR2-RDHT-CSNR1 = ZFP 53 QSHR2-RDHT-CSNR1 (Homo sapiens)
Sequence of ZFP 53 QSHR2-RDHT-CSNR1 (Homo sapiens) (chain, as listed by the source): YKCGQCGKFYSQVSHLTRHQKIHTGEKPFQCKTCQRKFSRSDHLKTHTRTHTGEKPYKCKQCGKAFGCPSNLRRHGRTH
Procedure: as §1, §2, §3

Sequence of ZFP 36 RSNR-VSSR-RSNR (Homo sapiens) (chain, as listed by the source): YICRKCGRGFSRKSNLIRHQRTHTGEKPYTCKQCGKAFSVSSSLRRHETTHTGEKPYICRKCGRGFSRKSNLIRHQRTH

B1: target 36 (dsDNA)
DNA 1: GAGGTTGAGG
DNA 2: CCTCAACCTC
B1 was tested. Which activity (ZFP 36 RSNR-VSSR-RSNR) did it give?
Its activity is 1.8 fold repression.

B2: target 41 (dsDNA)
DNA 1: GGGGAGGAAA
DNA 2: TTTCCTCCCC
Which activity (ZFP 41 QSNR3-RSNR-RSHR) does the source give for B2 here?
Its activity is 1.7 fold repression.

B3: target 45 (dsDNA)
DNA 1: GTTCAAGAC
DNA 2: GTCTTGAAC
With B3 as the binder, how does the activity (ZFP 45 HSNK-QSNV2-VSSR) read?
The activity was 1.7 fold repression.

B4: target 46 (dsDNA)
DNA 1: GAGAGAGAC
DNA 2: GTCTCTCTC
How did the activity (ZFP 46 HSNK-QSHT-RSNR) turn out when B4 was run?
The activity was 1.7 fold repression.

B5: target 65 (dsDNA)
DNA 1: GGGGCGGAG
DNA 2: CTCCGCCCC
For B5, which activity (ZFP 65 RSNR-RDER1-RSHR) is on record?
The activity was 1.5 fold repression.

B6: target 52 (dsDNA)
DNA 1: GAGTGAGGA
DNA 2: TCCTCACTC
For B6, which activity (ZFP 52 QSHR2-QSHT-RSNR) is on record?
Its activity is 1.6 fold repression.

B7: target 51 (dsDNA)
DNA 1: AGAAAAAATA
DNA 2: TATTTTTTCT
With B7 as the binder, how does the activity (ZFP 51 VSNV-QSNV2-QSHT) read?
Its activity is 1.6 fold repression.

B8: target 62 (dsDNA)
DNA 1: GCTGCAGCGT
DNA 2: ACGCTGCAGC
With B8 as the binder, how does the activity (ZFP 62 RDER1-QSSR1-VSTR) read?
Its activity is 1.5 fold repression.

B9: target 57 (dsDNA)
DNA 1: TGAGACGGAG
DNA 2: CTCCGTCTCA
Which activity (ZFP 57 QSHR2-CSNR1-QSHT) does the source give for B9 here?
The activity was 1.5 fold repression.

B10: target 47 (dsDNA)
DNA 1: GCTGGAGGGG
DNA 2: CCCCTCCAGC
How did the activity (ZFP 47 RSHR-QSHR2-VSTR) turn out when B10 was run?
The activity was 1.7 fold repression.

B11: target 64 (dsDNA)
DNA 1: GATGGGGTTT
DNA 2: AAACCCCATC
For B11, which activity (ZFP 64 VSSR-RSHR-ISNR) is on record?
The activity was 1.5 fold repression.

B12: target 48 (dsDNA)
DNA 1: GCGGGGAGGG
DNA 2: CCCTCCCCGC
B12 was tested. Which activity (ZFP 48 RDHT-RSHR-RDER1) did it give?
Its activity is 1.6 fold repression.

B13: target 49 (dsDNA)
DNA 1: AGAAAAGGG
DNA 2: CCCTTTTCT
With B13 as the binder, how does the activity (ZFP 49 RSHR-QSNV2-QSHT) read?
The activity was 1.6 fold repression.

B14: target 50 (dsDNA)
DNA 1: AAAGTGGGGA
DNA 2: TCCCCACTTT
How did the activity (ZFP 50 RSHR-RDER1-QSNV2) turn out when B14 was run?
The activity was 1.6 fold repression.

B15: target 42 (dsDNA)
DNA 1: AGAGGAAGGT
DNA 2: ACCTTCCTCT
Which activity (ZFP 42 RDHT-QSHR2-QSHT) does the source give for B15 here?
The activity was 1.7 fold repression.

B16: target 35 (dsDNA)
DNA 1: GGGTGAGTG
DNA 2: CACTCACCC
With B16 as the binder, how does the activity (ZFP 35 VSSR-QSHT-RSHR) read?
Its activity is 1.9 fold repression.

B17: target 56 (dsDNA)
DNA 1: GGGGCTGAGG
DNA 2: CCTCAGCCCC
For B17, which activity (ZFP 56 RSNR-VSTR-RSHR) is on record?
Its activity is 1.5 fold repression.

B18: target 60 (dsDNA)
DNA 1: CAAGTAGAAG
DNA 2: CTTCTACTTG
With B18 as the binder, how does the activity (ZFP 60 QSNR3-QSSR1-QSNV2) read?
The activity was 1.5 fold repression.

B19: target 58 (dsDNA)
DNA 1: GCTGGAAATT
DNA 2: AATTTCCAGC
Which activity (ZFP 58 VSNV-QSHR2-VSTR) does the source give for B19 here?
The activity was 1.5 fold repression.

B20: target 39 (dsDNA)
DNA 1: GGAGAGGCTC
DNA 2: GAGCCTCTCC
Which activity (ZFP 39 VSTR-RSNR-QSHR2) does the source give for B20 here?
Its activity is 1.8 fold repression.

B21: target 55 (dsDNA)
DNA 1: GAAGGAAAAT
DNA 2: ATTTTCCTTC
For B21, which activity (ZFP 55 QSNV2-QSHR2-QSNR3) is on record?
The activity was 1.6 fold repression.

B22: target 43 (dsDNA)
DNA 1: GGAGAAGTAG
DNA 2: CTACTTCTCC
For B22, which activity (ZFP 43 QSSR1-QSNR3-QSHR2) is on record?
The activity was 1.7 fold repression.

B23: target 53 (dsDNA)
DNA 1: GACAGGGGAG
DNA 2: CTCCCCTGTC
How did the activity (ZFP 53 QSHR2-RDHT-CSNR1) turn out when B23 was run?
The activity was 1.6 fold repression.
